Laboratory results published in patent US20160046707A1 (EISAI R AND D MANAGEMENT, published 2016).

T1: recombinant human CCL16 (human, UniProt O15467 24-120)
T1 construct: also called HCC-4
T1 sequence (looked up): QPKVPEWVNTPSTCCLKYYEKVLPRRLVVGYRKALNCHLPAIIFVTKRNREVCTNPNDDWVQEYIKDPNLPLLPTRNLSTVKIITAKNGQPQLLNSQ

T2: rhesus CCL20-secreted alkaline phosphatase (SEAP) fusion (rhesus monkey)
T2 construct: also called rCCL20; rhesus CCL20-SEAP; not shown: the SEAP reporter (cDNA from Clontech pSEAP-Enhancer) and its junction to CCL20
T2 chain: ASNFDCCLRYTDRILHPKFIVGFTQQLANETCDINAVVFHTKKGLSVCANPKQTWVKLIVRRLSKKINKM

T3: cynomolgus CCL20-secreted alkaline phosphatase (SEAP) fusion (cynomolgus monkey)
T3 construct: also called cCCL20; cynomolgus CCL20-SEAP; not shown: the SEAP reporter (cDNA from Clontech pSEAP-Enhancer) and its junction to CCL20
T3 chain: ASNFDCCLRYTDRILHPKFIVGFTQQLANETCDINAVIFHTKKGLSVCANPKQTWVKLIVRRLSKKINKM

T4: mouse CCL20-secreted alkaline phosphatase (SEAP) fusion (mouse, UniProt O89093 28-97)
T4 construct: Expressed in HEK293E, used as culture supernatant; also called SEAP-tagged mouse CCL20; mCCL20; not shown: secreted alkaline phosphatase (SEAP), cDNA from pSEAP-Enhancer vector (Clontech)
T4 sequence: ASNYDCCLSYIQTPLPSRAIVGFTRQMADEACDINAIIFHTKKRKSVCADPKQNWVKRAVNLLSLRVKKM


Legend:
recombinant human CCL16 = target: T1, recombinant human CCL16; experiment: SPR (Biacore): antibody captured on anti-human Fc, 100 nM chemokine injected
Method: We used Biacore™ analysis to test whether HC2/LK3 and HC2/LC3 cross-react with CCL16. Monoclonal mouse anti-human Fc was immobilized on all four flow cells of a CM5 chip at a flow rate of 25 μl/min with HBS-EP buffer containing 0.2 mg/mL BSA. Subsequently, 50 μl of a 1 μg/ml solution of chimeric, HC2/LC3, or HC2/LK3 antibody in HBS-EP buffer with 0.2 mg/ml BSA was injected over flow cells 2, 3, and 4, respectively. 150 μl of a 100 nM solution of CCL20 or CCL16 in HBS-EP buffer (or buffer alone) with 0.2 mg/ml BSA was then injected over all four flow cells at a flow rate of 40 μl/min. Dissociation followed for 20 min. Flow cell 1 (anti-human Fc antibody alone) was used as a reference for all flow cells.
Under these conditions, human CCL20 bound to the chimeric (FIG. 13A), HC2/LC3 (FIG. 13B), and HC2/LK3 (FIG. 13B) antibodies captured on the chip with similar strength.

[1] = target: T5, human CCL20-secreted alkaline phosphatase (SEAP) fusion (human, UniProt P78556 27-96); experiment: ELISA on CCL20-SEAP, Abs 450; x axis 'ug/ml' in 4-fold steps down from 10, taken as the antibody concentration as in FIG. 11C
T5 construct: also called hCCL20; human CCL20-SEAP; not shown: secreted alkaline phosphatase (SEAP), cDNA from pSEAP-Enhancer vector (Clontech)

[2] = target: T2, rhesus CCL20-secreted alkaline …; experiment: as above
[3] = target: T3, cynomolgus CCL20-secreted alkaline …; experiment: as above
[4] = target: rat CCL20-secreted alkaline phosphatase (SEAP) fusion (rat, UniProt P97884 27-96; P05187 23-511); experiment: as above
[5] = target: T3, cynomolgus CCL20-secreted alkaline …; experiment: ELISA, serially diluted CCL20-SEAP captured by anti-alkaline phosphatase antibody, antibody at 1 µg/ml
Method: (§1) To test whether the chimeric and humanized antibodies can bind to mouse, cynomolgus, or rhesus macaque CCL20 orthologs, we used ELISA assays as illustrated in FIG. 15. Recombinant secreted alkaline phosphatase (SEAP)-chemokine fusion proteins were engineered as described in Example 2, expressed and purified for all of the CCL20 orthologs tested. Nunc MaxiSorb flat-bottom black plates were coated with 1 μg/ml mouse anti-placental alkaline phosphatase antibody (Pierce, cat# MA1-19354) in 50 mM sodium bicarbonate, pH 9.4, overnight at 4° C. Plates were then blocked using 1× phosphate buffered saline with Tween-20 (PBST) with 5% bovine serum albumin (BSA) for 2 hours at room temperature. 20 nM SEAP-CCL20 fusion proteins were serially diluted 5-fold in Opti-MEM medium (Invitrogen). Chimeric and humanized (HC2/LC3 and HC2/LK3) antibodies were diluted to 1 μg/ml in 1×PBST with 5% BSA, added to the plates, and incubated for 1 hr at room temperature. The plates were then washed with 1×PBST with 5% BSA three times. […] QuantaBlu fluorescent HRP substrate (Pierce cat#15169) was added for detection of bound antibody by measuring fluorescence in a Molecular Devices M5 (Excitation 325 nm/Emission 420 nm) plate reader. […]

[6] = target: T3, cynomolgus CCL20-secreted alkaline …; experiment: ELISA, serially diluted CCL20-SEAP captured by anti-alkaline phosphatase antibody, antibody at 1 µg/ml; cynomolgus CCL20-SEAP
Method: To test whether the chimeric and humanized antibodies can bind to mouse, cynomolgus, or rhesus macaque CCL20 orthologs, we used ELISA assays as illustrated in FIG. 15. Recombinant secreted alkaline phosphatase (SEAP)-chemokine fusion proteins were engineered as described in Example 2, expressed and purified for all of the CCL20 orthologs tested. Nunc MaxiSorb flat-bottom black plates were coated with 1 μg/ml mouse anti-placental alkaline phosphatase antibody (Pierce, cat# MA1-19354) in 50 mM sodium bicarbonate, pH 9.4, overnight at 4° C. Plates were then blocked using 1× phosphate buffered saline with Tween-20 (PBST) with 5% bovine serum albumin (BSA) for 2 hours at room temperature. 20 nM SEAP-CCL20 fusion proteins were serially diluted 5-fold in Opti-MEM medium (Invitrogen). Chimeric and humanized (HC2/LC3 and HC2/LK3) antibodies were diluted to 1 μg/ml in 1×PBST with 5% BSA, added to the plates, and incubated for 1 hr at room temperature. The plates were then washed with 1×PBST with 5% BSA three times. […] QuantaBlu fluorescent HRP substrate (Pierce cat#15169) was added for detection of bound antibody by measuring fluorescence in a Molecular Devices M5 (Excitation 325 nm/Emission 420 nm) plate reader.

[7] = target: T5, human CCL20-secreted alkaline …; experiment: ELISA (fluorescent HRP substrate): CCL20-SEAP captured on anti-alkaline phosphatase in 5-fold dilutions from 20 nM (x axis, nM), antibody at 1 ug/ml; the text rounds this number to 62 pM
Method: as §1

[8] = target: T4, mouse CCL20-secreted alkaline …; experiment: ELISA on CCL20-SEAP, Abs 450; x axis 'ug/ml' in 4-fold steps down from 10, taken as the antibody concentration as in FIG. 11C

T5 sequence (P78556 27-96): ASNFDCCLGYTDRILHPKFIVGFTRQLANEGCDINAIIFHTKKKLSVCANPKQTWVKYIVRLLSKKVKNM
Sequence of rat CCL20-secreted alkaline phosphatase (SEAP) fusion (P97884 other isoform, or with tags, fused parts or gaps): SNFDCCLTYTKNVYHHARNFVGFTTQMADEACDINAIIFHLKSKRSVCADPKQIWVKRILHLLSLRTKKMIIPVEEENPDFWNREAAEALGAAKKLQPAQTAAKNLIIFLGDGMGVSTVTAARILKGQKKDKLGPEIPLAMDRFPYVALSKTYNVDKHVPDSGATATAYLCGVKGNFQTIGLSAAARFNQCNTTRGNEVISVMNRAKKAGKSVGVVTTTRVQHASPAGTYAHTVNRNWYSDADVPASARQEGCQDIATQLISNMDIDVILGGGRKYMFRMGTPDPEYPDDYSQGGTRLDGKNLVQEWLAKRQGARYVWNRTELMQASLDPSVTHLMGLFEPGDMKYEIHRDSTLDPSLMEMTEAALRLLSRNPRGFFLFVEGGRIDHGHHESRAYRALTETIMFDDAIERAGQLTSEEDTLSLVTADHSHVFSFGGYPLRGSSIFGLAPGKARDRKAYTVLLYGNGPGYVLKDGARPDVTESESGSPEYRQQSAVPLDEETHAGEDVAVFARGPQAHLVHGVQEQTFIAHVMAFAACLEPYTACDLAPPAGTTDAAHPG

Binder | binding result (recombinant human CCL16) | EC50 (read off the curve) [1] | EC50 (read off the curve) [2] | EC50 (read off the curve) [3] | binding result [4] | fold difference of EC50 versus human CCL20 [5] | EC50 [6] | EC50 [7] | binding result [8]
humanized anti-human CCL20 antibody 36LK3/36HC2 (antibody, human IgG1, kappa, V domains shown, expressed in HEK293 cells; also called HC2/LK3; HC2LK3) VH: QVQLVQSGAEVKKPGASVKVSCKASGYTFTNYWMHWVRQAPGQGLEWMGVIDPSDSYTTYAQKFQGRVTMTVDTSTSTVYMELSSLRSEDTAVYYCARGNYGVDYAMDYWGQGTLVTVSS VL: DIQMTQSPSSLSASVGDRVTITCGASENIYGALNWYQRKPGKAPKLLIYGATNLADGVPSRFSGSGSGRDYTLTISSLQPEDFATYYCQNVLITPYTFGQGTKLEIKR | no binding (tested: 100 nM) | ~0.02 µg/mL | ~0.02 µg/mL | ~0.02 µg/mL | no binding (tested: 10 ug/ml) |  |  |  | 
humanized anti-human CCL20 antibody 36LC3/36HC2 (antibody, human IgG1, kappa, V domains shown, expressed in HEK293 cells; also called HC2/LC3; HC2LC3) VH: QVQLVQSGAEVKKPGASVKVSCKASGYTFTNYWMHWVRQAPGQGLEWMGVIDPSDSYTTYAQKFQGRVTMTVDTSTSTVYMELSSLRSEDTAVYYCARGNYGVDYAMDYWGQGTLVTVSS VL: DIQMTQSPSSLSASVGDRVTITCRASENIYGALNWYQQKPGKAPKLLIYGATNLADGVPSRFSGSGSGRQYSLTISSLQPEDFATYYCQNVLITPYTFGGGTKLEIKR |  | ~0.02 µg/mL | ~0.02 µg/mL | ~0.02 µg/mL | no binding (tested: 10 ug/ml) | 5.4 fold | 0.34 nM | 0.0619 nM | 
mouse anti-human CCL20 monoclonal antibody 36F7C10 (antibody, V domains shown, Mouse hybridoma antibody; also called MouseMAb; parental mouse clone 36F7C10) VH: QVQLQQPGAELVKPGASVKMSCKASGYTFTNYWMHWVKQRPGQGLEWIGVIDPSDSYTTYNQKFKGKATLTVDTSSSTAYMQLSSLTSEDSAVYYCTRGNYGVDYAMDYWGQGTSVTVSS VL: DIQMTQSPASLSASVGETVTITCGASENIYGALNWYQRKQGKSPQLLIYGATNLADGMSSRFSGSGSGRQYSLKISSLHPDDVATYYCQNVLITPYTFGGGTKLEIK |  |  |  |  |  |  |  |  | no binding (tested: 10 ug/ml)
chimeric 36F7C10 antibody (36F7C10-hFc) (antibody, V domains shown, also called chimeric 36F710; Chimeric MAb) VH: QVQLQQPGAELVKPGASVKMSCKASGYTFTNYWMHWVKQRPGQGLEWIGVIDPSDSYTTYNQKFKGKATLTVDTSSSTAYMQLSSLTSEDSAVYYCTRGNYGVDYAMDYWGQGTSVTVSS VL: DIQMTQSPASLSASVGETVTITCGASENIYGALNWYQRKQGKSPQLLIYGATNLADGMSSRFSGSGSGRQYSLKISSLHPDDVATYYCQNVLITPYTFGGGTKLEIK | no binding (tested: 100 nM) |  |  |  |  |  |  |  | 
